Data on two molecules can be found in patent US20230416356A1 (SCOUT BIO, published 2023).

Some results are limits rather than exact numbers.

Test [1] addresses T1, canine IL-31 alanine-scanning peptide (residues 18-42 of SEQ ID NO:1) Y32A (canine).
T1 construct: See note of m18; also called Y32A peptide
T1 peptide: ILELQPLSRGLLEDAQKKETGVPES
Nature of the test: ELISA on alanine-scanning peptides, normalised to the first peptide of the series. How it is done:
(§1) Binding to the various IL-31 proteins and peptides was assessed by ELISA. IL-31 proteins or peptides (100 ng/well) were immobilized to polystyrene microplates as capture antigen. Wells were blocked with PBS/0.05% Tween 20/1% BSA. Coated wells were incubated for 1 h at room temperature with anti-IL-31 mAbs diluted in PBS/0.05% Tween 20/1% BSA (100 μl/well). After washing, the plates were incubated with a 1/10,000 dilution […] Rabbit Anti-Dog IgG (whole molecule) (Sigma) in PBS/0.05% Tween 20/1% BSA. Plates were washed with PBS/0.05% Tween 20 and developed by the addition of TMB substrate. Development was stopped by the addition of 100 ul ELISA stop Solution (Invitrogen) and absorbance of each well was determined at an optical density (OD) of 450 nm.
(§2) An alanine-scanning peptide library of the region encompassing amino acid residues 18-42 of SEQ ID NO:1 was generated ([…]; SEQ ID NO:79), consisting of 25 peptides, each with a single alanine mutation at a different residue. Binding of the RA4 mAb to each of the peptides was determined by ELISA, as detailed above.
In general terms: An ELISA detects its analyte on a solid surface through an enzyme-linked reagent.

The target in test [2] is T2, canine IL-31 alanine-scanning peptide (residues 18-42 of SEQ ID NO:1) Q33A (canine).
T2 construct: See note of m18; also called Q33A peptide
T2 peptide: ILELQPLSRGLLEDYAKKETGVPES
Described as above. The protocol:
as §1, §2

For test [3], the target named is T3, canine IL-31 alanine-scanning peptide (residues 18-42 of SEQ ID NO:1) V39A (canine).
T3 construct: See note of m18; also called V39A peptide
T3 peptide: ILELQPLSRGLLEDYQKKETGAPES
The description is as above. The protocol: as §1, §2

Test [4] addresses T4, canine IL-31 alanine-scanning peptide (residues 18-42 of SEQ ID NO:1) K35A (canine).
T4 construct: See note of m18; also called K35A peptide
T4 peptide: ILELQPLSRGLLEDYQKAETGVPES
Described as above. The protocol:
as §1, §2

For test [5], the target named is T5, canine IL-31 alanine-scanning peptide (residues 18-42 of SEQ ID NO:1) P40A (canine).
T5 construct: See note of m18; also called P40A peptide
T5 peptide: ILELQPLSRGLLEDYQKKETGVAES
The test is described as above. How it is done:
as §1, §2

The target of test [6] is T6, canine IL-31 alanine-scanning peptide (residues 18-42 of SEQ ID NO:1) L29A (canine).
T6 construct: also called L29A peptide
T6 peptide: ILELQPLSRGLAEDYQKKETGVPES
Described as above. How it is done:
as §1, §2

The target of test [7] is T7, canine IL-31 alanine-scanning peptide (residues 18-42 of SEQ ID NO:1) S42A (canine).
T7 construct: See note of m18; also called S42A peptide
T7 peptide: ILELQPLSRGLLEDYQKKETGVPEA
Described as above. The protocol: as §1, §2

For test [8], the target named is T8, Recombinant canine IL-31 (ProSpec-Tany); amino acid residues 24-159 of Accession no. NP_001159386; SEQ ID … (canine).
T8 chain: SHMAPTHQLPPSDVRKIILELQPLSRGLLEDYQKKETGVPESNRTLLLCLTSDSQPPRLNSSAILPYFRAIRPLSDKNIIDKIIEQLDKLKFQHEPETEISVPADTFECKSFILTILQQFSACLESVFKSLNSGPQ
Nature of the test: cell-based or functional assay.

Test [9] addresses T9, Canine IL-31_4xMUT_combo (SEQ ID NO: 74) (canine).
T9 construct: See note of m25; the entry already carries the substitutions, the leader and the His tag; also called all 4 residues (L29, Y32, Q33, and P40) substituted for alanine in combination
T9 chain: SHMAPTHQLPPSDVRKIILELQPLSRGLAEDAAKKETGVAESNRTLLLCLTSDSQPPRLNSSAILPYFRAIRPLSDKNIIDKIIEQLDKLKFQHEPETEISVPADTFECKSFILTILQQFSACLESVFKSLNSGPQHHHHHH
The test is described as follows: ELISA, protein coated (100 ng/well). The protocol: as §1
Confirmation of the unique epitope targeted by RA4 mAb was performed by assessing the binding of RA4 mAb to full length canine IL-31 proteins that contained each of the 4 key residues identified above, substituted for alanine, and a version with all 4 residues substituted for alanine in combination. […] Binding of RA4 mAb and M14 mAb to each of the proteins was determined by ELISA, as detailed above. […] When all 4 residues (L29, Y32, Q33, and P40) were substituted for alanine in combination, no binding to canine IL-31 was detected. […]

In a further test the target is T10, human IL-31 (human, UniProt Q6EBC2 24-164).
T10 construct: also called hIL-31
T10 sequence (looked up): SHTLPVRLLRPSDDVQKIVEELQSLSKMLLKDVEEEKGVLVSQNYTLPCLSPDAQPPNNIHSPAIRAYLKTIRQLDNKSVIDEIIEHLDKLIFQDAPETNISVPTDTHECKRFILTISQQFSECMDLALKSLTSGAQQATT
The test is described as follows: ELISA, antigen coated.

Test [10] addresses T8, Recombinant canine IL-31 (ProSpec-Tany; …). The test is described as follows: hybridoma screen, microarray ELISA format.

B1: chimeric monoclonal antibody RA4 (chRA4) (antibody, V domains shown)
VH: QIQLVQSGPELKKPGETVKISCKASGYTFTDYSMHWVKQAPGKGLRWMGWINTETGKTIHAEDFKGRVAFSLETSASTAYLQINNLKNEDTATYFCASGRPDYWGQGTTLTVSS
VL: DIVLSQSPASLAVSLGQRATISCRASESVEYYGTSLMQWYQQKPGQPPKLLIYAASGVESGVPARFSGSGSGTDFSLIIHPVEEDDIAMYFCQQSRKVPYTFGGGTKLEIKR
notes: also called chimeric RA4; chimeric RA4.D2 antibody
For the molecule B1, the “binding as a percentage of binding to the first peptide in the series” value in [1] was under 15%; in [2], under 15%; in test [3], under 50%; in [4], under 50%; in [5] it was under 15%; in [6], under 15%. Besides, the “binding as a percentage of binding to the first peptide in the series” value in [7] was under 50%. Moreover, the “inhibition of canine IL-31-induced STAT-3 phosphorylation in canine DH82 cells (IC50)” value in [8] came to 1.5 µg/mL. The binding result (in [9]; with human IL-31) was “no binding” in each case.

B2: murine monoclonal antibody RA4.D2 (antibody, V domains shown)
VH: QIQLVQSGPELKKPGETVKISCKASGYTFTDYSMHWVKQAPGKGLRWMGWINTETGKTIHAEDFKGRVAFSLETSASTAYLQINNLKNEDTATYFCASGRPDYWGQGTTLTVSS
VL: DIVLSQSPASLAVSLGQRATISCRASESVEYYGTSLMQWYQQKPGQPPKLLIYAASGVESGVPARFSGSGSGTDFSLIIHPVEEDDIAMYFCQQSRKVPYTFGGGTKLEIKR
notes: Mouse hybridoma antibody with a kappa light chain; also called murine RA4
B2: the binding result in [10] is on record as “binds”.
